From the supplement of paper PMC10126150
± gives the standard deviation of the averaged measurements.

Tested on: ATP
Assay: switch fluorescence ratio, 500 uM ATP over buffer (Cy3 cluster intensity, sum of 5 cycles each) (fold (ratio)); higher = stronger signal-on switching upon ATP binding; sequences stand for … in TCGTCGGCAGCGTCAGATGTGTATAAGAGACAGTTTTTTTTTTTTTTTTTTTTTTTTT…TC
Settings: aptamer strand: ATP DNA aptamer (quencher-CACCTGGGGGAGTATTGCGGAGGAAGG + anchor), 100 nM annealed; ATP concentration: 500 uM
In short: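 Per cluster, summed Cy3 intensity from the target cycles was divided by that from the buffer cycles to give the fluorescence ratio, then averaged per switch-domain sequence. Clusters outside 100-1000 RFU were excluded. The Cy3-labelled switching-strand clusters, on a modified Illumina MiSeq flow-cell, were annealed to 100 nM quencher-labelled ATP aptamer and imaged in selection buffer, then after 15 min with 500 uM ATP at 22 °C, for five cycles with NaOH stripping and re-annealing between them.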
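Also: ATP exposure 15 min at 22 °C before imaging.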

Row | Sequence | switch fluorescence ratio
1 | TGACGGGGGA | 0.986 ± 0.021
2 | TAATGGTCCG | 1.03 ± 0.03
3 | CATTTGTGGC | 0.961 ± 0.058
4 | GAGCCGGGCC | 0.99 ± 0.023
5 | TGGATGACGG | 0.972 ± 0.13
6 | TGGGTAGAAG | 0.9916 ± 0.0014
7 | GAAAAAGGCA | 0.974 ± 0.033
8 | AAAATTTCAA | 1.011 ± 0.0042
9 | TAGGCTAGGC | 0.971 ± 0.022
10 | AGAGGGGTCA | 1.01 ± 0.02
11 | AGTAATGGGT | 0.996 ± 0.017
12 | TAAATTTGAA | 0.976 ± 0.0034
13 | TTGGTCGCCC | 1.08 ± 0.17
14 | TTTTTAAGGG | 0.996 ± 0.032
15 | TGTTACGGAG | 1.009 ± 0.0042
16 | AAAGGGTTGT | 1.009 ± 0.009
17 | TGAAGTAGGG | 1.05 ± 0.12
18 | AGATAACAGG | 1.01 ± 0.034
19 | TTTCGAGGAC | 0.983 ± 0.011
20 | GCTAGGGTAG | 1.03 ± 0.058
21 | AACTGCGGTC | 1.016 ± 0.0031
22 | TAATGCGTGG | 0.999 ± 0.032
23 | AGACAGGGCC | 0.988 ± 0.01

Row | Sequence | switch fluorescence ratio
24 | ACGGGGTTGT | 1 ± 0.024
25 | GGGGGGTCGT | 1 ± 0.05
26 | AGGACGGGCA | 1.05 ± 0.053
27 | AGTGCGATGT | 0.988 ± 0.016
28 | GAATTATTAA | 0.9922 ± 0.0026
29 | ATCGGTCAGC | 0.982 ± 0.022
30 | CGCAGGATTT | 1.09 ± 0.19
31 | ATCGAGTCTA | 0.953 ± 0.017
32 | GCGGAGGGGT | 1.02 ± 0.049
33 | ACACTACGTC | 1.51 ± 0.056
34 | TTCCTGGGGA | 0.9943 ± 0.0077
35 | TTGATTGTGG | 1.03 ± 0.059
36 | GCGCGGGGGA | 1.02 ± 0.025
37 | TTCAGAGCTT | 1 ± 0.035
38 | AGATGTCCTT | 1.02 ± 0.037
39 | CGGGAGGGAG | 1 ± 0.05
40 | CTTTGGTGTC | 1.01 ± 0.029
41 | TGGCTTTGGA | 0.988 ± 0.022
42 | TCGAAAGTTA | 1.04 ± 0.022
43 | TTTGTAGCAG | 1.09 ± 0.028
44 | TTTGGCAAGG | 1.01 ± 0.054
45 | GGGGGCGGAG | 0.992 ± 0.024
46 | GTTAGATGGT | 0.9851 ± 0.0037

Row | Sequence | switch fluorescence ratio
47 | TTGAGGTGCA | 0.992 ± 0.025
48 | AACGGGGATA | 1.049 ± 0.0065
49 | GCTAATAAAT | 1.046 ± 0.0035
50 | GGCCCAGGAT | 1.07 ± 0.094
51 | ATGGCATGCT | 1.02 ± 0.021
52 | TCTGGTATGA | 1.01 ± 0.015
53 | GGGTTCAGAG | 1 ± 0.042
54 | CTTATACTGG | 1.02 ± 0.011
55 | GGATAAAATT | 0.996 ± 0.015
56 | GAGGGTGCAG | 1.004 ± 0.0043
57 | GGGTGGCATT | 0.957 ± 0.0032
58 | GTGTCAGGGG | 1.04 ± 0.07
59 | ATTGCGGGTT | 0.981 ± 0.013
60 | GATTGATTGC | 1 ± 0.033
61 | TTCAGTGTGG | 0.971 ± 0.022
62 | TTCATGTTGG | 0.998 ± 0.019
63 | GTGGGTTGGA | 0.993 ± 0.033
64 | CCCGAAGGTA | 1.01 ± 0.024
65 | TACGTTATGC | 1.27 ± 0.013
66 | TGAACAAATG | 1.04 ± 0.11
67 | TCAAGGGTTC | 1.03 ± 0.064
68 | ATCAGGGTTT | 1.005 ± 0.0057
69 | CGGGAAGTTC | 1.03 ± 0.016

Row | Sequence | switch fluorescence ratio
70 | AGGGAGAAAA | 0.974 ± 0.039
71 | GGGAATTTGC | 1 ± 0.036
72 | CGGGGAAGTT | 0.9847 ± 0.0079
73 | TTGCAGCTTA | 1.05 ± 0.035
74 | GGGGTCGGGT | 0.99 ± 0.012
75 | AAGCTGATCT | 1.016 ± 0.0071
76 | GTTTAAAGAC | 0.981 ± 0.02
77 | TTATATAGGT | 0.9738 ± 0.0054
78 | GTTTGAGGGT | 0.9939 ± 0.0087
79 | ATATTGTTTG | 1.01 ± 0.1
80 | TTCCGGATGG | 1.01 ± 0.021
81 | CGAGCATTGT | 1.16 ± 0.031
82 | TTTTGGTTTT | 1 ± 0.039
83 | TTTTTTGGCA | 0.982 ± 0.035
84 | CGCGAACATG | 0.984 ± 0.049
85 | CGTGGGGAGC | 1.06 ± 0.11
86 | CGTCACTAAT | 1.21 ± 0.25
87 | AAGTGAGGGT | 0.996 ± 0.036
88 | GGGGTGCCAG | 0.963 ± 0.058
89 | CCAGGAAGGT | 1.0204 ± 0.00069
90 | AAGTACCTAT | 1.27 ± 0.058
91 | TGGAACTATA | 1.02 ± 0.018
92 | CGACACCGTG | 1.025 ± 0.0013

Row | Sequence | switch fluorescence ratio
93 | TATGTGATGT | 0.981 ± 0.032
94 | GCCGGGGGGG | 1.02 ± 0.02
95 | AAAATGGGCC | 0.963 ± 0.033
96 | GAGGTTTAAG | 0.957 ± 0.052
97 | GTAAAAACTC | 1.03 ± 0.024
98 | AGGGGGGATA | 1.02 ± 0.074
99 | TTAGCTAAAA | 1.009 ± 0.01
100 | ACCTGGTCGT | 1.05 ± 0.048
101 | CGGTTTGGAG | 0.995 ± 0.056
102 | TTGCTACCAC | 1.07 ± 0.036
103 | ATCTATATAG | 0.9945 ± 0.0068
104 | GCGAAAAATA | 1.0196 ± 0.00067
105 | TGGTGCGGGG | 0.999 ± 0.026
106 | CTCTGAAGCT | 1.06 ± 0.017
107 | TAGTTATTTG | 0.993 ± 0.044
108 | AGGGGAAGGT | 0.984 ± 0.021
109 | TAGAAAAATG | 0.991 ± 0.029
110 | CTGGGTTAGG | 0.973 ± 0.032
111 | CGTAGACTGC | 1.06 ± 0.024
112 | AGGTACGGCC | 1.03 ± 0.033
113 | ACAATGTCGG | 0.998 ± 0.011
114 | TATAGGGCGG | 1.13 ± 0.21
115 | GTTTTTTGGA | 1.01 ± 0.018

Row | Sequence | switch fluorescence ratio
116 | ACAGCGCGAC | 1.32 ± 0.017
117 | CAAGGCTCAA | 1 ± 0.0013
118 | GAGTAGTATT | 1 ± 0.02
119 | GCGGGGGCAG | 0.993 ± 0.013
120 | GTAACAGGGT | 0.999 ± 0.023
121 | TGGGTACGCA | 1.03 ± 0.027
122 | GTTATTTAGG | 0.9966 ± 0.0084
123 | TTAAGGCCAT | 1.08 ± 0.13
124 | ACCACGGGCG | 1.09 ± 0.018
125 | GCCTGGTTGT | 1.02 ± 0.013
126 | AAGGGGCGGG | 0.952 ± 0.011
127 | GTGTCGAAGG | 0.976 ± 0.051
128 | TAATCCTCGT | 1.005 ± 0.0058
129 | AAGGACTAAC | 1.12 ± 0.012
130 | TTTCGATTTT | 0.993 ± 0.04
131 | TATTTTGAAA | 0.992 ± 0.027
132 | AATAATAGCC | 1.01 ± 0.042
133 | TCGGAATTGT | 0.9992 ± 0.0056
134 | GTATTAAGGG | 1.02 ± 0.035
135 | TACACGGGTT | 1.01 ± 0.035
136 | GTATTCGGGA | 0.963 ± 0.029
137 | GTCCTTGGTC | 0.982 ± 0.019
138 | CTTGTCACCA | 0.988 ± 0.022

Row | Sequence | switch fluorescence ratio
139 | AAACTAAGTT | 1.041 ± 0.008
140 | CTTTTTTTTG | 0.993 ± 0.017
141 | ATTTGGACGG | 0.948 ± 0.026
142 | AGGGAAGCTT | 0.972 ± 0.035
143 | AACACTGATT | 1.04 ± 0.026
144 | GTGGTAAGAT | 0.991 ± 0.037
145 | TTGCGTAGCA | 0.977 ± 0.02
146 | ACTGCGTAAA | 0.991 ± 0.041
147 | TGTTTTTGGC | 1 ± 0.025
148 | TTTAAAGGCC | 0.9682 ± 0.00099
149 | TGTAGTACTT | 1.02 ± 0.016
150 | ATCGTTTGCA | 1.02 ± 0.022
151 | TTGTGCGGAC | 1.01 ± 0.04
152 | AGACAGGGGA | 1.02 ± 0.04
153 | TTCTTGGGTT | 0.989 ± 0.031
154 | TCGGGGACCG | 0.952 ± 0.052
155 | TTTTGGGCCT | 1.042 ± 0.0088
156 | GTGTTATGAG | 0.995 ± 0.067
157 | TCGATCTGTG | 0.99652 ± 0.00045
